Experimental findings from PMC12713088, “Arabidopsis TRB Proteins Form Two Closely Related Complexes to Mediate H3K4me3 Demethylation and Transcriptional Repression” (Advanced Science, 2025) are described below.

The target in one series is T1, NAC050-N (Arabidopsis thaliana, UniProt Q9SQX9 1-184).
T1 sequence: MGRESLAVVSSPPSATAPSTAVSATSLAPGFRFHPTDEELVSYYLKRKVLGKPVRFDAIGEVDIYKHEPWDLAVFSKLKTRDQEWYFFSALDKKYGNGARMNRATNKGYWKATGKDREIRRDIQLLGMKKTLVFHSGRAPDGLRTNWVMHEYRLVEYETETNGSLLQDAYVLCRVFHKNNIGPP
In words: EMSA; EMSA: 10 mM Tris-HCl pH 7.5, 50 mM NaCl, 1 mM EDTA, 5% glycerol, 1 mM DTT, 25 C, 30 min, 20 ng DNA + 1 ug protein; ITC: 20 mM Tris-HCl pH 7.5, 150 mM NaCl, 25 C, 5 uM protein, 100 uM DNA. Conditions: protein: recombinant; tags: MBP; chain copies: 2; label: Cy5 at 5' of strand 1; blunt. (In general: A gel shift assay detects complexes by their altered migration in electrophoresis.)

The target of a further series is T2, TRB1;NAC050-N (Arabidopsis thaliana;Arabidopsis …, UniProt Q8VWK4;Q9SQX9 1-300;1-184, |).
T2 sequence 1: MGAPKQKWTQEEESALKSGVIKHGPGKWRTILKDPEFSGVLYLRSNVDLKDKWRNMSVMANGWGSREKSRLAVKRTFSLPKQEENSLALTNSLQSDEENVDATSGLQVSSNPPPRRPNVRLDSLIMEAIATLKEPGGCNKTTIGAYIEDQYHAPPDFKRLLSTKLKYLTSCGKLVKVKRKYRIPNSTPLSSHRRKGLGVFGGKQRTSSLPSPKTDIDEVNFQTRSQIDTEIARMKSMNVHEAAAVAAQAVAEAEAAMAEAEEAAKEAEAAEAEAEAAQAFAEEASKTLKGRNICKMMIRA
T2 sequence 2: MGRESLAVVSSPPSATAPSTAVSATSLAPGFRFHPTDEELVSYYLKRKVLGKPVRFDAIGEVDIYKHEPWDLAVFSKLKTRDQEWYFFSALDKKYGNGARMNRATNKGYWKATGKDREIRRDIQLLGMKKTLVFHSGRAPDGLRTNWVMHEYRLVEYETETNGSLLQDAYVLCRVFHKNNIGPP
In words: EMSA; TRB1 added to NAC050-N; larger complex; EMSA: 10 mM Tris-HCl pH 7.5, 50 mM NaCl, 1 mM EDTA, 5% glycerol, 1 mM DTT, 25 C, 30 min, 20 ng DNA + 1 ug protein; ITC: 20 mM Tris-HCl pH 7.5, 150 mM NaCl, 25 C, 5 uM protein, 100 uM DNA. Conditions: protein: recombinant;recombinant; tags: His;MBP; label: Cy5 at 5' of strand 1; blunt.

B1: Probe 2 (P2) (dsDNA)
DNA 1: GACGCTTGAGCCTCAAGAAAT
DNA 2: ATTTCTTGAGGCTCAAGCGTC
Take B1: the binding result in the series with NAC050-N and with TRB1;NAC050-N was “binds” in each case.
